Patent US20180215802A1 (MUSC FOUNDATION FOR RESEARCH DEVELOPMENT, published 2018)

T1: Recombinant human Smad4 (NM 005359) with C-terminal MYC/DDK tag (human, UniProt Q13485 1-552)
T1 construct: Bought from OriGene; also called DDK-tagged recombinant Smad4; DDK-tagged Smad4; not shown: C-terminal MYC/DDK tag
T1 sequence (looked up): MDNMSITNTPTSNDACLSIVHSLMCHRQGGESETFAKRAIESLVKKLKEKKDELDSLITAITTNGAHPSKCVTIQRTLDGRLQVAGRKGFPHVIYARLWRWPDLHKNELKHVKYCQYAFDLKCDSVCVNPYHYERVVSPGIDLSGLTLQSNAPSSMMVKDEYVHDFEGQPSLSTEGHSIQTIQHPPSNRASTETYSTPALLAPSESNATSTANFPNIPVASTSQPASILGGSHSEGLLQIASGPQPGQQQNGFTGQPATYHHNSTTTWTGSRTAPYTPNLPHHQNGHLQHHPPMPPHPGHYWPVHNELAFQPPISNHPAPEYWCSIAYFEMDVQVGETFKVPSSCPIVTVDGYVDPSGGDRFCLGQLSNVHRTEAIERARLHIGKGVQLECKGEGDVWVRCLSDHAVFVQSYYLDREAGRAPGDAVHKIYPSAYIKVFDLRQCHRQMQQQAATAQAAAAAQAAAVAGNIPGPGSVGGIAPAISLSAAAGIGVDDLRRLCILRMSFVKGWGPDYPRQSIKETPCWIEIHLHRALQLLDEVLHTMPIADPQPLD


What was measured:
[1] = target: T1, Recombinant human Smad4 (NM 005359) …; test: peptide-protein interaction assay: capture with C12 antibody and protein G sepharose, anti-DDK immunoblot
Description: C-12 antibody (1 μg) was added, and incubation was continued for another 30 minutes followed by adding 50 μl of protein G-sepharose slurry for an additional 20 minutes. The resin was washed three times with buffer A; the retained proteins were solubilized in Laemmli sample buffer and subjected to immunoblotting with anti-DDK monoclonal antibody.
As a positive control for anti-DDK antibody, the gel was loaded with 5 μl-aliquots of a buffer containing DDK-tagged recombinant Smad2 or Smad4 proteins.

[2] = target: T2, Recombinant human Smad2 (NM 005901) with C-terminal MYC/DDK tag (human, UniProt Q15796 1-467); test: peptide-protein interaction assay: M10 and DDK-tagged Smad2 (1 µg each), capture with C12 antibody and protein G sepharose, anti-DDK immunoblot
T2 construct: Bought from OriGene; also called DDK-tagged recombinant Smad2; DDK-tagged Smad2; not shown: C-terminal MYC/DDK tag
T2 sequence (Q15796 whole entry): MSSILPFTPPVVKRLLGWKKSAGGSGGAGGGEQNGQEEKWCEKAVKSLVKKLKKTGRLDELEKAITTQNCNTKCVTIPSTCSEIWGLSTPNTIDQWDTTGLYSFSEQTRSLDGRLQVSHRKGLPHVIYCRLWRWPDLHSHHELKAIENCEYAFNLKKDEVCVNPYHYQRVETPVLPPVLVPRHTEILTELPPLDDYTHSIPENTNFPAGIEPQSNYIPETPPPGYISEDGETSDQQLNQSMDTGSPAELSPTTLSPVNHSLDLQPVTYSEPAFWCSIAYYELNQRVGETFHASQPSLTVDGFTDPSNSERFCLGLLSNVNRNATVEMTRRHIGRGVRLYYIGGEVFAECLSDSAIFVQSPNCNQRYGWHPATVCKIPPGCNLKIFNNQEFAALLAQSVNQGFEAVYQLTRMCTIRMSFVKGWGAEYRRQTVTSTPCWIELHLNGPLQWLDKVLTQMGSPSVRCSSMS

[3] = target: MET receptor tyrosine kinase, wild type, full length, P08581
Sequence of MET receptor tyrosine kinase, wild type, full length, P08581 (P08581 whole entry, looked up): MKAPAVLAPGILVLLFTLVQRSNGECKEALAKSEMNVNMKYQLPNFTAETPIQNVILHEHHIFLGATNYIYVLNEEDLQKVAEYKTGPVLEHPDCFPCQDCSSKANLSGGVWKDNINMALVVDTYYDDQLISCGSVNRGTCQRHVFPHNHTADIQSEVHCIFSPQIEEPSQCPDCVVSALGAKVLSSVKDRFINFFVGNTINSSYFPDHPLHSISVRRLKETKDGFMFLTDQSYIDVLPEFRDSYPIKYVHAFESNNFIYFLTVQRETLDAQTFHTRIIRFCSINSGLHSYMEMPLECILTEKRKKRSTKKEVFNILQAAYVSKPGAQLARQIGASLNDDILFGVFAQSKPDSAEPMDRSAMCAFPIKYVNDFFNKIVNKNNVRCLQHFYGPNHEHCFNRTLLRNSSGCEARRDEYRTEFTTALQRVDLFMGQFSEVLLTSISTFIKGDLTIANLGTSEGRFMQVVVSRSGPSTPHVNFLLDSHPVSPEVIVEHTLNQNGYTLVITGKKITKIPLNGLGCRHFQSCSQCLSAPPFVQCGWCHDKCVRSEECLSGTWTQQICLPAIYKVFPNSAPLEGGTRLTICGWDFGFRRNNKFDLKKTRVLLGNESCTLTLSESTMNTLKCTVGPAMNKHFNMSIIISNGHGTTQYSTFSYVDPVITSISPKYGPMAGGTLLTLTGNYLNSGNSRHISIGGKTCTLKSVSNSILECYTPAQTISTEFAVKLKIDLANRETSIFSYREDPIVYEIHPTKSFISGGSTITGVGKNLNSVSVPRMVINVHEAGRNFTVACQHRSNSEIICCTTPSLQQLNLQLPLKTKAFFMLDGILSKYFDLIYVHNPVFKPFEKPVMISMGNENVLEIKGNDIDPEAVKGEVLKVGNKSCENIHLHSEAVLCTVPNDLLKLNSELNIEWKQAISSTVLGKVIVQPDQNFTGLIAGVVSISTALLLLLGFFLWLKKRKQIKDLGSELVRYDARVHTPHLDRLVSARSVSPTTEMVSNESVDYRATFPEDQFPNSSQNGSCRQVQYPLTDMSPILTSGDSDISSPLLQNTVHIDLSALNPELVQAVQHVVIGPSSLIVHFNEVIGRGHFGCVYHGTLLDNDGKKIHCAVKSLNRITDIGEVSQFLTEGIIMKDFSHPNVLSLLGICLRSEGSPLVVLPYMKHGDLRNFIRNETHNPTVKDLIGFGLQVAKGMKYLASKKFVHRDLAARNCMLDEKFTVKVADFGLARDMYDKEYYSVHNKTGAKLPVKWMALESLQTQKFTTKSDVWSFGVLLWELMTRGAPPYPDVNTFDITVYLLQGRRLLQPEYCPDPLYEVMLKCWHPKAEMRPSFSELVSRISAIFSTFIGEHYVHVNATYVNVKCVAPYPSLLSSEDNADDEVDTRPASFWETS

binding result [1] | binding result [2] | Binder | cleavage of the MET C-terminus (loss of C12 signal in Western blot) [3]
no binding (tested: 1 µg each) | binds | TRPASFWETS (Synthetic peptide from GenScript; A 5,6-TAMRA conjugate (at the N-terminus) was used only for localisation; also called 2 kD C-terminal fragment (M10) of the MET receptor; last 10 amino acids of MET) [M10 peptide (TRPASFWETS), synthetic] | 
 |  | caspase-3 (activated, endogenous in lung fibroblasts and alveolar epithelial cells) (protein) SGISLDNSYKMDYPEMGLCIIINNKNFHKSTGMTSRSGTDVDAANLRETFRNLKYEVRNKNDLTREEIVELMRDVSKEDHSKRSSFVCVLLSHGEEGIIFGTNGPVDLKKITNFFRGDRCRSLTGKPKLFIIQACRGTELDCGIETDSGVDDDMACHKIPVEADFLYAYSTAPGYYSWRNSKDGSWFIQSLCAMLKQYADKLEFMHILTRVNRKVATEFESFSFDATFHAKKQIPCIVSMLTKELYFYH | Cisplatin-induced caspase-3 cleavage was associated with a loss of detectable MET protein in Western blots with the C12 antibody
